Data as given in PMC12102759.

B1: MXI1 peptide 4-19 (Max-interacting protein 1), 16-mer library wild type / SIN3A PAH2 (SIN3A PAH domain, residues 295-383) (parent)
chain 1: VKMINVQRLLEAAEFL
chain 2: SLQNNQPVEFNHAINYVNKIKNRFQGQPDIYKAFLEILHTYQKEQRNAKEAGGNYTPALTEQEVYAQVARLFKNQEDLLSEFGQFLPDA

Variants of: B1
Test: proteomic peptide phage display deep mutational scan (ProP-PD DMS): M13 P8 16-mer library selected against immobilised GST-tagged bait for four days (rounds), NGS of the eluted pools per day and pseudo-replica
Conditions: with SIN3A PAH2 (SIN3A PAH domain, residues 295-383); bait immobilised on MaxiSorp plates (10 µg), library pre-cleared on GST, 2 h binding at 4 °C, five washes; one round per day, days 1-4; value from days 2 and 3; keep out of graded; scale: average fractional NGS count over selection days 2 and 3

screen value	Variant
0	chain 1 VKMINSQRLLEAAEFL
0.000458	chain 1 VKMINYQRLLEAAEFL
2.36e-05	chain 1 VKMINQQRLLEAAEFL
0	chain 1 VKMINTQRLLEAAEFL
0.000299	chain 1 VKMINMQRLLEAAEFL
0.000142	chain 1 VKMINIQRLLEAAEFL
0.000565	chain 1 VKMIGVQRLLEAAEFL
0.0011	chain 1 VKMIMVQRLLEAAEFL
0.000135	chain 1 VKMIFVQRLLEAAEFL
0.00143	chain 1 VKMIWVQRLLEAAEFL
0.000204	chain 1 VKMITVQRLLEAAEFL
0.00022	chain 1 VKMILVQRLLEAAEFL
0.000431	chain 1 VKMINVQNLLEAAEFL
5.66e-05	chain 1 VKMINVQLLLEAAEFL
2.88e-05	chain 1 VKMINVQVLLEAAEFL
0.000195	chain 1 VKMINVQWLLEAAEFL

screen value	Variant
0.000466	chain 1 VKMINVQALLEAAEFL
9.12e-05	chain 1 VKMINVQMLLEAAEFL
0.000659	chain 1 VKMINVQQLLEAAEFL
0.000316	chain 1 VKMINVQKLLEAAEFL
0.000403	chain 1 VKMINVQGLLEAAEFL
0.000529	chain 1 VKMINVQSLLEAAEFL
0.000199	chain 1 VKMINVQILLEAAEFL
0	chain 1 VKMINVQELLEAAEFL
0.000148	chain 1 VKMINVQYLLEAAEFL
4.82e-05	chain 1 VKTINVQRLLEAAEFL
8.38e-05	chain 1 VKWINVQRLLEAAEFL
2.4e-05	chain 1 VKNINVQRLLEAAEFL
0	chain 1 VKLINVQRLLEAAEFL
0.000204	chain 1 VKVINVQRLLEAAEFL
0	chain 1 VKRINVQRLLEAAEFL

Continued, variant first:

Variant	screen value
chain 1 VKMINVQRLWEAAEFL	3.85e-05
chain 1 VKMINVQRLVEAAEFL	0
chain 1 VKMINVQRLTEAAEFL	0.000112
chain 1 VKMINVQRLAEAAEFL	0
chain 1 VKMINVQRLLPAAEFL	0
chain 1 VKMINVQRLLGAAEFL	0
chain 1 VKMINVQRLLWAAEFL	0.00397
chain 1 VSMINVQRLLEAAEFL	0.00272
chain 1 VMMINVQRLLEAAEFL	0.000167
chain 1 VVMINVQRLLEAAEFL	0.000308
chain 1 VWMINVQRLLEAAEFL	0.00198
chain 1 VGMINVQRLLEAAEFL	0.00453
chain 1 VNMINVQRLLEAAEFL	0.00263
chain 1 VYMINVQRLLEAAEFL	0.00178
chain 1 VLMINVQRLLEAAEFL	0.00133
chain 1 VHMINVQRLLEAAEFL	0.00169
chain 1 VRMINVQRLLEAAEFL	0.000162
chain 1 VIMINVQRLLEAAEFL	0.00027
chain 1 VQMINVQRLLEAAEFL	0.00731
chain 1 VPMINVQRLLEAAEFL	0.00116
chain 1 VKMINVQRLLEAAAFL	0.0141
chain 1 VKMINVQRLLEAARFL	0.00116
chain 1 VKMINVQRLLEAAGFL	0.00102
chain 1 VKMINVQRLLEAANFL	0.000159

Variant	screen value
chain 1 VKMINVQRLLEAADFL	0.0127
chain 1 VKMINVQRLLEAAQFL	0.00119
chain 1 VKMINVQRLLEAAYFL	0.00266
chain 1 VKMINVQRLLEAAMFL	0.00144
chain 1 VKMINVQRLLEAASFL	0.00604
chain 1 VKMINVQRLLEAAVFL	0.0112
chain 1 VKMINVQRLLEAAIFL	0.00251
chain 1 VKMINVQRLLEAAFFL	0.000859
chain 1 VKMINVQRLLEAAEFR	0.000122
chain 1 VKMINVQRLLEAAEFH	0.000538
chain 1 VKMINVQRLLEAAEFS	9.12e-05
chain 1 VKMINVQRLLEAAEFA	0.000201
chain 1 VKMINVQRLLEAAEFT	3.79e-05
chain 1 VKMINVQRLLEAAEFE	7.18e-05
chain 1 VKMINVQRLLEAAEFG	5.21e-05
chain 1 VKMINVQRLLEAAEFV	7.65e-05
chain 1 VKMINVQRLLEAAEFN	8.06e-05
chain 1 VKMINVQRLLEAAEFI	0.00145
chain 1 VKMINVQRLLEAAEFK	7.16e-05
chain 1 VKMINVQRLLEAAEFM	3.86e-05
chain 1 VKMINVQRLLEAAEFQ	0.000343
chain 1 VKMINVQRLLEAAEFD	5.21e-05
chain 1 VKMINVQRILEAAEFL	0.00165
chain 1 VKMINVQRGLEAAEFL	0

Variant	screen value
chain 1 VKMINVQRMLEAAEFL	0
chain 1 VKMINVQRNLEAAEFL	0
chain 1 VKMINVQRTLEAAEFL	0
chain 1 VKMINVQRLLEAGEFL	3.3e-05
chain 1 VKMINVQRLLEAMEFL	8.44e-05
chain 1 VKMINVQRLLEAIEFL	0.000995
chain 1 VKMINVQRLLEADEFL	2.4e-05
chain 1 VKMINVQRLLEAFEFL	0.00117
chain 1 VKMINVQRLLEAHEFL	0.000246
chain 1 VKMINVQRLLEAKEFL	0
chain 1 VKMINVQRLLEAAERL	3.85e-05
chain 1 VKMINVQRLLEAAEYL	0.00011
chain 1 VKMINVQRLLEAAETL	9.49e-05
chain 1 VKMINVQRLLEAAEIL	0
chain 1 VKMINVQRLLEAAEAL	0.00102
chain 1 VKMINVQRLLEAAEGL	4.24e-05
chain 1 VKMINVQRLLEAAEHL	2.84e-05
chain 1 VKMINVQRLLEAAESL	4.3e-05
chain 1 VKMINVQRLLEAAEVL	2.36e-05
chain 1 VKMINVQRLLEAAEWL	0.000134
chain 1 VKHINVQRLLEAAEFL	0.000154
chain 1 VKGINVQRLLEAAEFL	9.82e-05
chain 1 VKAINVQRLLEAAEFL	6.73e-05
chain 1 VKDINVQRLLEAAEFL	0.000126
